Test results published in paper PMC1278935, “Different Catalytic Mechanisms in Mammalian Selenocysteine- and Cysteine-Containing Methionine-R-Sulfoxide Reductases” (PLoS Biology, 2005).
Where a chain is given by its changes, count along the chain named. Names may count otherwise.

Tests used:
[1] = substrate: CN(C)c1ccc(N=Nc2ccc(S(=O)(=O)N[C@@H](CC[S@@+](C)[O-])C(=O)O)cc2)cc1; assay: HPLC of dabsyl-Met, Lineweaver-Burk; type: biochemical, Mus musculus; conditions: 20 mM DTT, 50 mM sodium phosphate pH 7.5, 50 mM NaCl, 37 °C
Excerpt: HPLC of dabsyl-Met, Lineweaver-Burk on MsrB1 (Sec-containing MsrB1; Cys form MsrB1-Cys)

[2] = substrate: CN(C)c1ccc(N=Nc2ccc(S(=O)(=O)N[C@@H](CC[S@@+](C)[O-])C(=O)O)cc2)cc1; assay: HPLC of dabsyl-Met, Lineweaver-Burk; type: biochemical, Homo sapiens; conditions: 20 mM DTT, 50 mM sodium phosphate pH 7.5, 50 mM NaCl, 37 °C, from E. coli
Excerpt: HPLC of dabsyl-Met, Lineweaver-Burk on MsrB3

B1: MsrB1 (Sec-containing MsrB1; Cys form MsrB1-Cys) (Mus musculus) (protein)
chain: MSFCSFFGGEVFQNHFEPGVYVCAKCSYELFSSHSKYAHSSPWPAFTETIHPDSVTKCPEKNRPEALKVSCGKCGNGLGHEFLNDGPKRGQSRFUIFSSSLKFVPKGKEAAASQGH
notes: full length, monomer; Sec forms: natural SECIS element, C-terminal His tag (five His added to own C-terminal His), from NIH 3T3 cells; C-terminally tagged form of similar activity also made
Protein B1 has a Km ([1]; Sec form from NIH 3T3) of 500 ± 100 µM and a kcat ([1]; Sec form from NIH 3T3) of 0.223 ± 0.0383 s⁻¹.

B2: MsrB1 (Sec-containing MsrB1; Cys form MsrB1-Cys) (Mus musculus; F97N/G77H) (protein)
chain: B1 chain with G77H, F97N
notes: as for B1
Work on B2 yielded a Km ([1]; Sec form from NIH 3T3) of 6400 ± 2100 µM and a kcat ([1]; Sec form from NIH 3T3) of 0.04 ± 0.0083 s⁻¹.

B3: MsrB1 (Sec-containing MsrB1; Cys form MsrB1-Cys) (Mus musculus; G77H) (protein)
chain: B1 chain with G77H
notes: as for B1
B3 was tested, and the Km ([1]; Sec form from NIH 3T3) was 800 ± 50 µM and the kcat ([1]; Sec form from NIH 3T3) was 0.0433 ± 0.013 s⁻¹.

B4: MsrB1 (Sec-containing MsrB1; Cys form MsrB1-Cys) (Mus musculus; F97N/G77H/U95C) (protein)
chain: B1 chain with G77H, U95C, F97N
notes: as for B1
B4 showed a Km ([1]; MsrB1-Cys from E. coli) of 13200 ± 2400 µM and a kcat ([1]; MsrB1-Cys from E. coli) of 0.023 ± 0.005 s⁻¹.

B5: MsrB1 (Sec-containing MsrB1; Cys form MsrB1-Cys) (Mus musculus; U95C) (protein)
chain: B1 chain with U95C
notes: as for B1
B5 showed a Km ([1]; MsrB1-Cys from E. coli) of 1300 ± 200 µM and a kcat ([1]; MsrB1-Cys from E. coli) of 0.00183 ± 0.0005 s⁻¹.

B6: MsrB1 (Sec-containing MsrB1; Cys form MsrB1-Cys) (Mus musculus; F97N) (protein)
chain: B1 chain with F97N
notes: as for B1
With B6 the Km ([1]; Sec form from NIH 3T3) was 4300 ± 1600 µM and the kcat ([1]; Sec form from NIH 3T3) was 0.01 ± 0.0033 s⁻¹.

B7: MsrB3 (Homo sapiens; H77G) (protein)
chain: SGSCRDKKNCKVVFSQQELRKRLTPLQYHVTQEKGTESAFEGEYTGHKDPGIYKCVVCGTPLFKSETKFDSGSGWPSFHDVINSEAITFTDDFSYGMHRVETSCSQCGAHLGHIFDDGPRPTGKRYCINSAALSFTPADSSGTAEGGSGVASPAQADKAEL
notes: MsrB3A delta(1-31), residues 32-192, endoplasmic reticulum signal removed, C-terminal His tag (LEHHHHHH), E. coli BL21(DE3), monomer
B7 was tested, and the Km ([2]; MsrB1 numbering) was 1000 ± 200 µM and the kcat ([2]; MsrB1 numbering) was 0.0283 ± 0.005 s⁻¹.

B8: MsrB3 (Homo sapiens; I113E) (protein)
chain: B7 chain with G46H, I82E
notes: as for B7
B8 was tested, and the Km ([2]; MsrB1 numbering) was 200 ± 50 µM and the kcat ([2]; MsrB1 numbering) was 0.07 ± 0.0083 s⁻¹.

B9: MsrB3 (Homo sapiens) (protein)
chain: B7 chain with G46H
notes: as for B7
Work on B9 yielded a Km [2] of 800 ± 50 µM and a kcat [2] of 0.827 ± 0.07 s⁻¹.

B10: MsrB3 (Homo sapiens; N160Y) (protein)
chain: B7 chain with G46H, N129Y
notes: as for B7
B10 was tested, and the Km ([2]; MsrB1 numbering) was 1200 ± 100 µM and the kcat ([2]; MsrB1 numbering) was 0.00033 ± 0.00017 s⁻¹.
